Data on 19 molecules can be found in patent publication US20250263504A1 (Takeda / Millennium, published 2025).

In one assay the target is T1, plasma kallikrein (pKal) (UniProt P03952 20-390; P03952 391-638, limits assumed).
T1 construct: the description speaks of human pKal; also called active pKal
The assay is described as follows: enzyme inhibition, corrected Ki,app.

A further assay addresses T2, Factor XIIa (FXIIa) (UniProt P00748 20-372; P00748 373-615, limits assumed).
T2 construct: the description speaks of human FXIIa; also called active Factor XII
T2 sequence (looked up) 1: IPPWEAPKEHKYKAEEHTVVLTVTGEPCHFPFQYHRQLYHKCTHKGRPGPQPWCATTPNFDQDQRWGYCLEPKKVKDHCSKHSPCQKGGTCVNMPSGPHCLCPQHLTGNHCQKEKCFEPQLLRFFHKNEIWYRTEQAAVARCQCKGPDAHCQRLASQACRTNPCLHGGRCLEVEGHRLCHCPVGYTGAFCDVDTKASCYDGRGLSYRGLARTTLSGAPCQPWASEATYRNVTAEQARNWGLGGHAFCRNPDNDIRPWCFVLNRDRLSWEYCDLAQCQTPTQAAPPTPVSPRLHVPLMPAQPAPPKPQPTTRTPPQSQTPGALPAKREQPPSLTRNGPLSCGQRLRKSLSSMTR
T2 sequence (looked up) 2: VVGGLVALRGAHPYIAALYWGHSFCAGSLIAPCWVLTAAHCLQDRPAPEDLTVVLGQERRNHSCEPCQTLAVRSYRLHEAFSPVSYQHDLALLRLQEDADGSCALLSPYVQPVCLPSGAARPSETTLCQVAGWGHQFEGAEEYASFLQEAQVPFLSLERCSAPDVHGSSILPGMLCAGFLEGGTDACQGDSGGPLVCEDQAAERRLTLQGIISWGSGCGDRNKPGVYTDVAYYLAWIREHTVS
The assay is described as follows: enzyme inhibition, corrected Ki,app.

T1 sequence (P03952 20-390 limits assumed, form in doubt, chain 1 of 2): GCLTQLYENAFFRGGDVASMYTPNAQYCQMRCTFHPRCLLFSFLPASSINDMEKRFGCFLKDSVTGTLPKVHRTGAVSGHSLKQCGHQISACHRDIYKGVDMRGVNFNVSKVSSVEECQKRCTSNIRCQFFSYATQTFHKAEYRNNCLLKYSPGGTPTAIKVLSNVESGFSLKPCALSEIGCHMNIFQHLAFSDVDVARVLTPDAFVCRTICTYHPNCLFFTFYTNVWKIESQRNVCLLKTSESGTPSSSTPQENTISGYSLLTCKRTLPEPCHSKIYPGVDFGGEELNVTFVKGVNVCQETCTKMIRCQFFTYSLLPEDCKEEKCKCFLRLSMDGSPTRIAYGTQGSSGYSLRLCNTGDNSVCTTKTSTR
T1 sequence (P03952 391-638 limits assumed, form in doubt, chain 2 of 2): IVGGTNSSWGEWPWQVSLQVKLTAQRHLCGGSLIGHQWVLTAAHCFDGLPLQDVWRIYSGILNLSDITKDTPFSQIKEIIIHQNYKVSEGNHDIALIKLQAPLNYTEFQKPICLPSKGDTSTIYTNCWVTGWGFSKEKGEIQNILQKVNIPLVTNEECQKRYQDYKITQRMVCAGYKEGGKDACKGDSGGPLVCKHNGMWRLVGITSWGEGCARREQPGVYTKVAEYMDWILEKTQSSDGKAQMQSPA

B1: 620I-X0136-C05 (bispecific antibody)
heavy: not shown
light: DIQMTQSPSTLSASVGDRVTITCRASQSISSWLAWYQQKPGKAPKLLIYKASTLESGVPSRFSGSGSGTEFTLTISSLQPDDFATYYCQQYNTYWTFGQGTKVEIKRTVAAPSVFIFPPSDEQLKSGTASVVCLLNNFYPREAKVQWKVDNALQSGNSQESVTEQDSKDSTYSLSSTLTLSKADYEKHKVYACEVTHQGLSSPVTKSFNRGEC
notes: also called 620I-X136-C05
On to B1, for which the figures for the Ki with plasma kallikrein (pKal) and in the assay with Factor XIIa (FXIIa) were 0.15 nM and 0.058 nM, respectively.

B2: 620I-X0136-A09 (bispecific antibody, human IgG1, kappa)
heavy: not shown
light: DIQMTQSPSTLSASVGDRVTITCRASQSISSWLAWYQQKPGKAPKLLIYKASTLESGVPSRFSGSGSGTEFTLTISSLQPDDFATYYCQQYNTYWTFGQGTKVEIKRTVAAPSVFIFPPSDEQLKSGTASVVCLLNNFYPREAKVQWKVDNALQSGNSQESVTEQDSKDSTYSLSSTLTLSKADYEKHKVYACEVTHQGLSSPVTKSFNRGEC
notes: also called 620I-X136-A09
Regarding B2, the Ki in the assay with plasma kallikrein (pKal) was 0.19 nM.

B3: 620I-X0138-A06 (bispecific antibody)
heavy: not shown
light: DIQMTQSPSTLSASVGDRVTITCRASQSISSWLAWYQQKPGKAPKLLIYKASTLESGVPSRFSGSGSGTEFTLTISSLQPDDFATYYCQQYNTYWTFGQGTKVEIKRTVAAPSVFIFPPSDEQLKSGTASVVCLLNNFYPREAKVQWKVDNALQSGNSQESVTEQDSKDSTYSLSSTLTLSKADYEKHKVYACEVTHQGLSSPVTKSFNRGEC
notes: also called 620I-X138-A06
In the assay with plasma kallikrein (pKal), B3 had a Ki of 0.145 nM.

B4: 620I-X0136-A12 (bispecific antibody)
heavy: not shown
light: DIQMTQSPSTLSASVGDRVTITCRASQSISSWLAWYQQKPGKAPKLLIYKASTLESGVPSRFSGSGSGTEFTLTISSLQPDDFATYYCQQYNTYWTFGQGTKVEIKRTVAAPSVFIFPPSDEQLKSGTASVVCLLNNFYPREAKVQWKVDNALQSGNSQESVTEQDSKDSTYSLSSTLTLSKADYEKHKVYACEVTHQGLSSPVTKSFNRGEC
notes: also called 620I-X136-A12
Regarding B4, the values for the Ki with plasma kallikrein (pKal) and with Factor XIIa (FXIIa) were 0.234 nM and 0.304 nM, respectively.

B5: 620I-X0136-B02 (bispecific antibody)
heavy: not shown
light: DIQMTQSPSTLSASVGDRVTITCRASQSISSWLAWYQQKPGKAPKLLIYKASTLESGVPSRFSGSGSGTEFTLTISSLQPDDFATYYCQQYNTYWTFGQGTKVEIKRTVAAPSVFIFPPSDEQLKSGTASVVCLLNNFYPREAKVQWKVDNALQSGNSQESVTEQDSKDSTYSLSSTLTLSKADYEKHKVYACEVTHQGLSSPVTKSFNRGEC
notes: also called 620I-X136-B02
As for B5, the Ki turned out to be 0.21 nM in the assay with plasma kallikrein (pKal) and 2.86 nM in the assay with Factor XIIa (FXIIa).

B6: 620I-X0136-A02 (bispecific antibody)
heavy: not shown
light: DIQMTQSPSTLSASVGDRVTITCRASQSISSWLAWYQQKPGKAPKLLIYKASTLESGVPSRFSGSGSGTEFTLTISSLQPDDFATYYCQQYNTYWTFGQGTKVEIKRTVAAPSVFIFPPSDEQLKSGTASVVCLLNNFYPREAKVQWKVDNALQSGNSQESVTEQDSKDSTYSLSSTLTLSKADYEKHKVYACEVTHQGLSSPVTKSFNRGEC
notes: also called 620I-X136-A02
Turning to B6, the values for the Ki with plasma kallikrein (pKal) and with Factor XIIa (FXIIa) were 0.176 nM and 0.136 nM, respectively.

B7: 620I-X0136-C09 (bispecific antibody)
heavy: not shown
light: DIQMTQSPSTLSASVGDRVTITCRASQSISSWLAWYQQKPGKAPKLLIYKASTLESGVPSRFSGSGSGTEFTLTISSLQPDDFATYYCQQYNTYWTFGQGTKVEIKRTVAAPSVFIFPPSDEQLKSGTASVVCLLNNFYPREAKVQWKVDNALQSGNSQESVTEQDSKDSTYSLSSTLTLSKADYEKHKVYACEVTHQGLSSPVTKSFNRGEC
notes: also called 620I-X136-C09
With B7, the Ki with plasma kallikrein (pKal) was found to be 0.173 nM; with Factor XIIa (FXIIa) it was 0.09 nM.

B8: 620I-X0136-B07 (bispecific antibody)
heavy: not shown
light: DIQMTQSPSTLSASVGDRVTITCRASQSISSWLAWYQQKPGKAPKLLIYKASTLESGVPSRFSGSGSGTEFTLTISSLQPDDFATYYCQQYNTYWTFGQGTKVEIKRTVAAPSVFIFPPSDEQLKSGTASVVCLLNNFYPREAKVQWKVDNALQSGNSQESVTEQDSKDSTYSLSSTLTLSKADYEKHKVYACEVTHQGLSSPVTKSFNRGEC
notes: also called 620I-X136-B07
Take B8: the figures for the Ki with plasma kallikrein (pKal) and in the assay with Factor XIIa (FXIIa) were 0.168 nM and 0.099 nM, respectively.

B9: 620I-X0136-A01 (bispecific antibody)
heavy: not shown
light: DIQMTQSPSTLSASVGDRVTITCRASQSISSWLAWYQQKPGKAPKLLIYKASTLESGVPSRFSGSGSGTEFTLTISSLQPDDFATYYCQQYNTYWTFGQGTKVEIKRTVAAPSVFIFPPSDEQLKSGTASVVCLLNNFYPREAKVQWKVDNALQSGNSQESVTEQDSKDSTYSLSSTLTLSKADYEKHKVYACEVTHQGLSSPVTKSFNRGEC
notes: also called 620I-X136-A01
For B9, the Ki with plasma kallikrein (pKal) was determined as 0.135 nM; in the assay with Factor XIIa (FXIIa), 0.224 nM.

B10: 620I-X0136-A05 (bispecific antibody)
heavy: not shown
light: DIQMTQSPSTLSASVGDRVTITCRASQSISSWLAWYQQKPGKAPKLLIYKASTLESGVPSRFSGSGSGTEFTLTISSLQPDDFATYYCQQYNTYWTFGQGTKVEIKRTVAAPSVFIFPPSDEQLKSGTASVVCLLNNFYPREAKVQWKVDNALQSGNSQESVTEQDSKDSTYSLSSTLTLSKADYEKHKVYACEVTHQGLSSPVTKSFNRGEC
notes: also called 620I-X136-A05
For B10, the Ki was 0.179 nM with plasma kallikrein (pKal) and 0.111 nM in the assay with Factor XIIa (FXIIa).

B11: 620I-X0136-C01 (bispecific antibody)
heavy: not shown
light: DIQMTQSPSTLSASVGDRVTITCRASQSISSWLAWYQQKPGKAPKLLIYKASTLESGVPSRFSGSGSGTEFTLTISSLQPDDFATYYCQQYNTYWTFGQGTKVEIKRTVAAPSVFIFPPSDEQLKSGTASVVCLLNNFYPREAKVQWKVDNALQSGNSQESVTEQDSKDSTYSLSSTLTLSKADYEKHKVYACEVTHQGLSSPVTKSFNRGEC
notes: also called 620I-X136-C01
On to B11, for which the Ki with plasma kallikrein (pKal) amounted to 0.173 nM; in the assay with Factor XIIa (FXIIa) it was 0.957 nM.

B12: 620I-X0136-C04 (bispecific antibody)
heavy: not shown
light: DIQMTQSPSTLSASVGDRVTITCRASQSISSWLAWYQQKPGKAPKLLIYKASTLESGVPSRFSGSGSGTEFTLTISSLQPDDFATYYCQQYNTYWTFGQGTKVEIKRTVAAPSVFIFPPSDEQLKSGTASVVCLLNNFYPREAKVQWKVDNALQSGNSQESVTEQDSKDSTYSLSSTLTLSKADYEKHKVYACEVTHQGLSSPVTKSFNRGEC
notes: also called 620I-X136-C04
B12: the values for the Ki with plasma kallikrein (pKal) and in the assay with Factor XIIa (FXIIa) were 0.205 nM and 0.189 nM, respectively.

B13: 620I-X0136-C12 (bispecific antibody)
heavy: not shown
light: DIQMTQSPSTLSASVGDRVTITCRASQSISSWLAWYQQKPGKAPKLLIYKASTLESGVPSRFSGSGSGTEFTLTISSLQPDDFATYYCQQYNTYWTFGQGTKVEIKRTVAAPSVFIFPPSDEQLKSGTASVVCLLNNFYPREAKVQWKVDNALQSGNSQESVTEQDSKDSTYSLSSTLTLSKADYEKHKVYACEVTHQGLSSPVTKSFNRGEC
notes: also called 620I-X136-C12
Regarding B13, the Ki is 0.217 nM in the assay with plasma kallikrein (pKal) and 1.57 nM with Factor XIIa (FXIIa).

B14: 620I-X0136-B11 (bispecific antibody)
heavy: not shown
light: DIQMTQSPSTLSASVGDRVTITCRASQSISSWLAWYQQKPGKAPKLLIYKASTLESGVPSRFSGSGSGTEFTLTISSLQPDDFATYYCQQYNTYWTFGQGTKVEIKRTVAAPSVFIFPPSDEQLKSGTASVVCLLNNFYPREAKVQWKVDNALQSGNSQESVTEQDSKDSTYSLSSTLTLSKADYEKHKVYACEVTHQGLSSPVTKSFNRGEC
notes: also called 620I-X136-B11
For the molecule B14, the Ki with plasma kallikrein (pKal) amounted to 0.172 nM; in the assay with Factor XIIa (FXIIa), 0.184 nM.

B15: 620I-X0136-A11 (bispecific antibody)
heavy: not shown
light: DIQMTQSPSTLSASVGDRVTITCRASQSISSWLAWYQQKPGKAPKLLIYKASTLESGVPSRFSGSGSGTEFTLTISSLQPDDFATYYCQQYNTYWTFGQGTKVEIKRTVAAPSVFIFPPSDEQLKSGTASVVCLLNNFYPREAKVQWKVDNALQSGNSQESVTEQDSKDSTYSLSSTLTLSKADYEKHKVYACEVTHQGLSSPVTKSFNRGEC
notes: also called 620I-X136-A11
As for B15, the Ki in the assay with plasma kallikrein (pKal) came to 0.199 nM; with Factor XIIa (FXIIa), 0.193 nM.

B16: 620I-X0136-C07 (bispecific antibody)
heavy: not shown
light: DIQMTQSPSTLSASVGDRVTITCRASQSISSWLAWYQQKPGKAPKLLIYKASTLESGVPSRFSGSGSGTEFTLTISSLQPDDFATYYCQQYNTYWTFGQGTKVEIKRTVAAPSVFIFPPSDEQLKSGTASVVCLLNNFYPREAKVQWKVDNALQSGNSQESVTEQDSKDSTYSLSSTLTLSKADYEKHKVYACEVTHQGLSSPVTKSFNRGEC
notes: also called 620I-X136-C07
As for B16, the Ki is 0.182 nM in the assay with plasma kallikrein (pKal) and 0.699 nM in the assay with Factor XIIa (FXIIa).

B17: 620I-X0136-C11 (bispecific antibody)
heavy: not shown
light: DIQMTQSPSTLSASVGDRVTITCRASQSISSWLAWYQQKPGKAPKLLIYKASTLESGVPSRFSGSGSGTEFTLTISSLQPDDFATYYCQQYNTYWTFGQGTKVEIKRTVAAPSVFIFPPSDEQLKSGTASVVCLLNNFYPREAKVQWKVDNALQSGNSQESVTEQDSKDSTYSLSSTLTLSKADYEKHKVYACEVTHQGLSSPVTKSFNRGEC
notes: also called 620I-X136-C11
With B17, the Ki is 0.154 nM with plasma kallikrein (pKal) and 0.038 nM in the assay with Factor XIIa (FXIIa).

B18: 620I-X0136-A04 (bispecific antibody)
heavy: not shown
light: DIQMTQSPSTLSASVGDRVTITCRASQSISSWLAWYQQKPGKAPKLLIYKASTLESGVPSRFSGSGSGTEFTLTISSLQPDDFATYYCQQYNTYWTFGQGTKVEIKRTVAAPSVFIFPPSDEQLKSGTASVVCLLNNFYPREAKVQWKVDNALQSGNSQESVTEQDSKDSTYSLSSTLTLSKADYEKHKVYACEVTHQGLSSPVTKSFNRGEC
notes: also called 620I-X136-A04
B18: the Ki with plasma kallikrein (pKal) stood at 0.171 nM; with Factor XIIa (FXIIa), 0.23 nM.

B19: 620I-X0136-C08 (bispecific antibody)
heavy: not shown
light: DIQMTQSPSTLSASVGDRVTITCRASQSISSWLAWYQQKPGKAPKLLIYKASTLESGVPSRFSGSGSGTEFTLTISSLQPDDFATYYCQQYNTYWTFGQGTKVEIKRTVAAPSVFIFPPSDEQLKSGTASVVCLLNNFYPREAKVQWKVDNALQSGNSQESVTEQDSKDSTYSLSSTLTLSKADYEKHKVYACEVTHQGLSSPVTKSFNRGEC
notes: also called 620I-X136-C08
Turning to B19, the Ki with plasma kallikrein (pKal) was 0.216 nM; with Factor XIIa (FXIIa), 1.23 nM.
